Several values for one entry are separate records, joined by “and”; a condition that tells them apart may be missing. Equal values may be shown once. Blank lines part the entries; values can stand above or below the binder they belong to.
How the values were obtained:
[1] = molecular target: T1, membrane-bound full-length human CD89 on HEK293F cells (human, UniProt P24071 22-287); assay: FACS, antibody before non-aggregated serum IgA on HEK293F-huCD89; IgA detected
T1 construct: 2 or transient transfectants; also called membrane human CD89; human FcaRI

[2] = molecular target: T1, membrane-bound full-length human CD89 …; assay: FACS HEK293F-huCD89
Method: After extensive washing in PBS/BSA/NaN₃, cells were subsequently incubated with 1:200 diluted PE-conjugated goat anti-human IgG Fcy-specific antibodies (Jackson ImmunoResearch) for 30 minutes at 4° C. After extensive washing in PBS/BSA/NaN₃, cells were fixed in 2% formaldehyde in PBS/BSA/NaN₃ for 30 minutes at 4° C.

[3] = molecular target: T1, membrane-bound full-length human CD89 …; assay: FACS, antibody before secretory IgA on HEK293F-huCD89; IgA detected
[4] = molecular target: T1, membrane-bound full-length human CD89 …; assay: FACS, antibody before heat-aggregated serum IgA on HEK293F-huCD89; IgA detected
[5] = molecular target: T2, recombinant C-terminal polyhistidine-tagged human (extracellular) CD89 (Sino Biological) (human, UniProt P24071 22-227); assay: ELISA, coated rhuCD89
T2 construct: extracellular domain; bought protein; also called rhuCD89; soluble monomeric rhuCD89
Method: After extensive washing with PBS/0.05% Tween 20, plates were blocked with PBS/0.05% Tween 20/1% BSA (Roche) for 1 hour at RT. Subsequently, plates were incubated with 50 µL titrated (in block buffer) purified mouse anti-human CD89 antibody/well for 1 hour at RT. […] After extensive washing in PBS/0.05% Tween 20, binding of antibodies on rhuCD89 was determined with 1:5,000 diluted horseradish peroxidase (HRP)-conjugated goat anti-mouse IgG Fcy-specific antibodies (Jackson ImmunoResearch) for 1 hour at RT, followed by a ready-to-use solution of TMB substrate (Invitrogen) for colorimetric detection.
After extensive washing with PBS/0.05% Tween 20, plates were blocked with PBS/0.05% Tween 20/1% BSA (Roche) for 1 hour at RT. […] After extensive washing in PBS/0.05% Tween 20, binding of antibodies on rhuCD89 was determined with 1:5,000 diluted horseradish peroxidase (HRP)-conjugated goat anti-human IgG Fcy-specific antibodies (Jackson ImmunoResearch) for 1 hour at RT, followed by a ready-to-use solution of TMB substrate (Invitrogen) for colorimetric detection.

[6] = molecular target: T2, recombinant C-terminal …; assay: ELISA, coated rhuCD89, purified Ab
Method: After extensive washing with PBS/0.05% Tween 20, plates were blocked with PBS/0.05% Tween 20/1% BSA (Roche) for 1 hour at RT. […] After extensive washing in PBS/0.05% Tween 20, binding of antibodies on rhuCD89 was determined with 1:5,000 diluted horseradish peroxidase (HRP)-conjugated goat anti-human IgG Fcγ-specific antibodies (Jackson ImmunoResearch) for 1 hour at RT, followed by a ready-to-use solution of TMB substrate (Invitrogen) for colorimetric detection. After adding 1 M HCL, binding (optical density) of antibodies on rhuCD89 was measured at wavelength of 450 nm (reference wavelength of 655 nm) using a microplate reader (Synergy HTX; BioTek).

[7] = molecular target: T1, membrane-bound full-length human CD89 …; assay: FACS HEK293F-huCD89; inhibition of secretory human IgA binding
Method: (§1) After extensive washing in PBS/BSA/NaN₃, 1:200 diluted PE-conjugated streptavidin (Jackson ImmunoResearch) was added, and incubated for 30 minutes at 4° C. After extensive washing in PBS/BSA/NaN₃, cells were fixed in 4% formaldehyde in PBS/BSA/NaN₃ for 30 minutes at 4° C.

[8] = molecular target: T1, membrane-bound full-length human CD89 …; assay: FACS HEK293F-huCD89, purified Ab
Method: After extensive washing in PBS/BSA/NaN₃, cells were subsequently incubated with 1:200 diluted PE-conjugated goat anti-human IgG Fcγ-specific antibodies (Jackson ImmunoResearch) for 30 minutes at 4° C. After extensive washing in PBS/BSA/NaN₃, cells were fixed in 4% formaldehyde in PBS/BSA/NaN₃ for 30 minutes at 4° C.

[9] = molecular target: T1, membrane-bound full-length human CD89 …; assay: FACS HEK293F-huCD89; inhibition of serum human IgA binding
Method: as §1

[10] = molecular target: T2, recombinant C-terminal …; assay: BLI (Octet RED96), biotinylated Ab on streptavidin tips, rhuCD89 analyte, 1:1 model
Method: Equilibrium dissociation constants (KD) were determined using a 1:1 Langmuir binding model in Octet® RED96 software (ForteBio).

[11] = molecular target: T2, recombinant C-terminal …; assay: ELISA on plate-coated rhuCD89; titrated supernatant; HRP goat anti-human IgG Fc detection, OD 450 nm [VL3]
[12] = molecular target: T2, recombinant C-terminal …; assay: ELISA on plate-coated rhuCD89; titrated supernatant; HRP goat anti-human IgG Fc detection, OD 450 nm [VL4]

IC50 (read off the curve) [1]: ~1 µg/mL
EC50 [2]: 1.32 µg/mL
IC50 (read off the curve) [3]: ~1 µg/mL
IC50 (read off the curve) [4]: ~1 µg/mL
EC50 [5]: 0.031 µg/mL
B1: CD89/IgA blocking chimeric mouse/human IgG4/kappa anti-human CD89 antibody 8F3 (antibody)
heavy: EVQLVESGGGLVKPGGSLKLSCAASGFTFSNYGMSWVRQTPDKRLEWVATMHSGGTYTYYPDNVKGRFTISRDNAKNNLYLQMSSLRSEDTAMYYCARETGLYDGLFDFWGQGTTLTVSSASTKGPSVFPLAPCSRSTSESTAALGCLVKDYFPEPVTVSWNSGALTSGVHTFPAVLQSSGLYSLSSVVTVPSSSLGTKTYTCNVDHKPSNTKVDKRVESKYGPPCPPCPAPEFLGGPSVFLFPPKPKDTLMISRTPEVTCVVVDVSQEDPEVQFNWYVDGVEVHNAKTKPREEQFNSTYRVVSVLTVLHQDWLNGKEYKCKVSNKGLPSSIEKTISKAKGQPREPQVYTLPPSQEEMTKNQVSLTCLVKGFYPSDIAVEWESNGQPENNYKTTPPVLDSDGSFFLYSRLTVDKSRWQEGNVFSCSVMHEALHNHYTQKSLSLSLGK
light: DVQITQSPSYLAASPGETITINCRASKTISKYLAWYQEKPGKTNMLLIYSGSTLQSGVPSRFSGSGSGTDFTLTISSLEPEDLAMYYCQQHDEYPWTFGGGTKLEIKRTVAAPSVFIFPPSDEQLKSGTASVVCLLNNFYPREAKVQWKVDNALQSGNSQESVTEQDSKDSTYSLSSTLTLSKADYEKHKVYACEVTHQGLSSPVTKSFNRGEC
notes: stabilized (S239P) human IgG4; also called chimeric 8F3

EC50 [6]: ~0.01 µg/mL
IC50 [7]: ~1 µg/mL
EC50 [8]: ~1.3 µg/mL
EC50 [2]: 1.25 µg/mL and ~1 µg/mL
IC50 [9]: ~1.6 µg/mL
EC50 [5]: 0.016 µg/mL and ~0.02 µg/mL
Kd [10]: 1280 pM
koff [10]: 0.00106 s⁻¹
kon [10]: 832000 M⁻¹ s⁻¹
B2: CD89/IgA blocking chimeric mouse/human IgG4/kappa anti-human CD89 antibody 10E7 (antibody)
heavy: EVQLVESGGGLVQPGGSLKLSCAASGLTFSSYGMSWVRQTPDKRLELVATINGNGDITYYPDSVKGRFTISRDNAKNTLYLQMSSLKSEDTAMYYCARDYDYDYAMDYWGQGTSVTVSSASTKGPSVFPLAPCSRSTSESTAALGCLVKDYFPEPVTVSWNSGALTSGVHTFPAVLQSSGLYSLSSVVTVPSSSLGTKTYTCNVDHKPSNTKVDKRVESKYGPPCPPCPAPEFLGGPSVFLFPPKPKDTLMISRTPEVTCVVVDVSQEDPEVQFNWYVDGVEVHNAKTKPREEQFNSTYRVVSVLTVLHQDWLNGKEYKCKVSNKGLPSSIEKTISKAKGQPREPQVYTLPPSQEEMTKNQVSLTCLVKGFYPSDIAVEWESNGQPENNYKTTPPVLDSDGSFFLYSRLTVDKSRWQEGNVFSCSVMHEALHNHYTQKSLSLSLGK
light: DIQMTQSTSSLSASLGDSVTISCRASQDIINYLNWYQQKPDGTVKLLIYYTSRLHSGVPSRFSGSGSGTEYSLTVSNLEKEDIATYFCQQGKTLPYTFGGGTKLEIKRTVAAPSVFIFPPSDEQLKSGTASVVCLLNNFYPREAKVQWKVDNALQSGNSQESVTEQDSKDSTYSLSSTLTLSKADYEKHKVYACEVTHQGLSSPVTKSFNRGEC
notes: stabilized (S239P) human IgG4; biotinylated in the Octet assay; also called chimeric 10E7; chimer IgG4/k 10E7

EC50 [2]: 1.79 µg/mL
EC50 [5]: 0.108 µg/mL
B3: CD89/IgA blocking chimeric mouse/human IgG4/kappa anti-human CD89 antibody 16D6 (antibody)
heavy: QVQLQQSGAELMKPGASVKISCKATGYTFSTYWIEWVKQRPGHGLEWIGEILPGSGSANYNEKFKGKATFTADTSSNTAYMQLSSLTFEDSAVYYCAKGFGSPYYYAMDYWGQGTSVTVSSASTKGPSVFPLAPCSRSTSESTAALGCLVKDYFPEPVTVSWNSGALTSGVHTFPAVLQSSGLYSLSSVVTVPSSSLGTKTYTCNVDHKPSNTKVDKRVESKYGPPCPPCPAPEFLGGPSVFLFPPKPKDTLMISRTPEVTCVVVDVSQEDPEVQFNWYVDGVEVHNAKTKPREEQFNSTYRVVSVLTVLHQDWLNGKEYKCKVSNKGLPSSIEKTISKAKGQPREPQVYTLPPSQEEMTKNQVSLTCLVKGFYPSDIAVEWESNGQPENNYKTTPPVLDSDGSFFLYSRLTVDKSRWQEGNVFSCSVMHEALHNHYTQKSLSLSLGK
light: EIVLTQSPALMAASPGEKVTITCSVSSSISSSNLHWYQQKSETSPKPWIYGTSKLASGVPVRFSGSGSGTSYSLTISNMEAEDAATYYCQQWSSFPLTFGGGTKLEIKRTVAAPSVFIFPPSDEQLKSGTASVVCLLNNFYPREAKVQWKVDNALQSGNSQESVTEQDSKDSTYSLSSTLTLSKADYEKHKVYACEVTHQGLSSPVTKSFNRGEC
notes: stabilized (S239P) human IgG4; also called chimeric 16D6

EC50 [2]: 0.296 µg/mL
EC50 [5]: 0.009 µg/mL
B4: CD89/IgA blocking chimeric mouse/human IgG4/kappa anti-human CD89 antibody 20B4 (antibody)
heavy: not shown
light: DILMTQSPSSMSVSLGDTVSITCHASQDISRNIGWLQQKPGKSFKGLIYHGTNLEDGVPSRFSGSGSGADYSLTISSLESEDFADYYCVQYAQFPRTFGGGTKLEIKRTVAAPSVFIFPPSDEQLKSGTASVVCLLNNFYPREAKVQWKVDNALQSGNSQESVTEQDSKDSTYSLSSTLTLSKADYEKHKVYACEVTHQGLSSPVTKSFNRGEC
notes: stabilized (S239P) human IgG4; also called chimeric 20B4

EC50 (read off the curve) [11]: ~0.04 µg/mL
B5: humanized IgG4/kappa anti-human CD89 monoclonal antibody 10E7 version VH2VL3 (antibody)
heavy: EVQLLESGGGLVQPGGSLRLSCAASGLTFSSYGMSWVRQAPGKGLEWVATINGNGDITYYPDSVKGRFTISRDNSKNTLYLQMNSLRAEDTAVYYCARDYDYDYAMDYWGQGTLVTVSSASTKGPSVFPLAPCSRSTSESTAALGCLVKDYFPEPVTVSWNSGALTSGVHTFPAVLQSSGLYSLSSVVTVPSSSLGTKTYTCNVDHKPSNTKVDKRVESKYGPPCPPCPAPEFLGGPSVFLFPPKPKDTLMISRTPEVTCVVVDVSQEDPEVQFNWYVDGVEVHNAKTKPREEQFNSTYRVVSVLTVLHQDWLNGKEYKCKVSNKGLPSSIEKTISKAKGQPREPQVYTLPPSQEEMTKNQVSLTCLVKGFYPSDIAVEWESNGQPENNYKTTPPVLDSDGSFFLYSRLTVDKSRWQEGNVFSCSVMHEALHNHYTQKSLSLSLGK
light: DIQMTQSPSSLSASVGDRVTITCRASQDIINYLNWYQQKPGKAVKLLIYYTSRLHSGVPSRFSGSGSGTDYTLTISSLQPEDFATYYCQQGKTLPYTFGQGTKLEIKRTVAAPSVFIFPPSDEQLKSGTASVVCLLNNFYPREAKVQWKVDNALQSGNSQESVTEQDSKDSTYSLSSTLTLSKADYEKHKVYACEVTHQGLSSPVTKSFNRGEC
notes: tested as supernatant; signal peptide end derived as for m17

EC50 [6]: ~0.01 µg/mL
IC50 [7]: ~0.6 µg/mL
EC50 [8]: ~0.6 µg/mL
IC50 [9]: ~0.9 µg/mL
Kd [10]: 920 pM
koff [10]: 0.000974 s⁻¹
kon [10]: 1.06e+06 M⁻¹ s⁻¹
B6: 'CDR2 deamidation-repaired' humanized IgG4/kappa anti-human CD89 monoclonal antibody 10E7 version VH3STVL3 (antibody)
heavy: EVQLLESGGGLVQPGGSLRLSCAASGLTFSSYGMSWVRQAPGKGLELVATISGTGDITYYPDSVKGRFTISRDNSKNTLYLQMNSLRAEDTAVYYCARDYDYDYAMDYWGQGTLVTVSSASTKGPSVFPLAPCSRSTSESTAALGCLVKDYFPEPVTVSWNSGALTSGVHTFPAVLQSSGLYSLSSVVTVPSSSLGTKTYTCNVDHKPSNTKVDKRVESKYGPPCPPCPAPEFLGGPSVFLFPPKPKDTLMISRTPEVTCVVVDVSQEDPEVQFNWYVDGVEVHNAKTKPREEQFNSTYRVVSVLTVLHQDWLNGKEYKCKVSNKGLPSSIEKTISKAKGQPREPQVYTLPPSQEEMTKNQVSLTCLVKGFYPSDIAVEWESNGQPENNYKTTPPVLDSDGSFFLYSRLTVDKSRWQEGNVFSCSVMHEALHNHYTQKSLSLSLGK
light: DIQMTQSPSSLSASVGDRVTITCRASQDIINYLNWYQQKPGKAVKLLIYYTSRLHSGVPSRFSGSGSGTDYTLTISSLQPEDFATYYCQQGKTLPYTFGQGTKLEIKRTVAAPSVFIFPPSDEQLKSGTASVVCLLNNFYPREAKVQWKVDNALQSGNSQESVTEQDSKDSTYSLSSTLTLSKADYEKHKVYACEVTHQGLSSPVTKSFNRGEC
notes: Biotinylated in the Octet assay; also called Humanized VH3STVL3

EC50 (read off the curve) [12]: ~0.03 µg/mL
B7: humanized IgG4/kappa anti-human CD89 monoclonal antibody 10E7 version VH2VL4 (antibody)
heavy: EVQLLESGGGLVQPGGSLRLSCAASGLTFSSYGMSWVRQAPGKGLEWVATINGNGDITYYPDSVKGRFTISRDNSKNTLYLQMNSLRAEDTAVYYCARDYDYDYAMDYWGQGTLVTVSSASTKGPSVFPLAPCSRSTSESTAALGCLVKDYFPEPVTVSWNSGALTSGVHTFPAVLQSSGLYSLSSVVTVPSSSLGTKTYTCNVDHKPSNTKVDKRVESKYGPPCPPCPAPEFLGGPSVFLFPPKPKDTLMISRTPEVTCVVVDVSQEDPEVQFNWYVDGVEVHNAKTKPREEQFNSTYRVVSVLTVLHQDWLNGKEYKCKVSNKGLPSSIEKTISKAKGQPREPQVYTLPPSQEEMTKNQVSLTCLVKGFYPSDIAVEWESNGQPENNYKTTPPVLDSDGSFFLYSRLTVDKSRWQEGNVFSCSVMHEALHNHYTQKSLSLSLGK
light: DIQMTQSPSSLSASVGDRVTITCRASQDIINYLNWYQQKPGKTVKLLIYYTSRLHSGVPSRFSGSGSGTDYTLTISSLQPEDFATYFCQQGKTLPYTFGQGTKLEIKRTVAAPSVFIFPPSDEQLKSGTASVVCLLNNFYPREAKVQWKVDNALQSGNSQESVTEQDSKDSTYSLSSTLTLSKADYEKHKVYACEVTHQGLSSPVTKSFNRGEC
notes: as for B5

EC50 [6]: ~0.01 µg/mL
IC50 [7]: ~0.6 µg/mL
EC50 [8]: ~0.6 µg/mL
IC50 [9]: ~0.9 µg/mL
Kd [10]: 820 pM
koff [10]: 0.000941 s⁻¹
kon [10]: 1.15e+06 M⁻¹ s⁻¹
B8: 'CDR2 deamidation-repaired' humanized IgG4/kappa anti-human CD89 monoclonal antibody 10E7 version VH3SQVL3 (antibody)
heavy: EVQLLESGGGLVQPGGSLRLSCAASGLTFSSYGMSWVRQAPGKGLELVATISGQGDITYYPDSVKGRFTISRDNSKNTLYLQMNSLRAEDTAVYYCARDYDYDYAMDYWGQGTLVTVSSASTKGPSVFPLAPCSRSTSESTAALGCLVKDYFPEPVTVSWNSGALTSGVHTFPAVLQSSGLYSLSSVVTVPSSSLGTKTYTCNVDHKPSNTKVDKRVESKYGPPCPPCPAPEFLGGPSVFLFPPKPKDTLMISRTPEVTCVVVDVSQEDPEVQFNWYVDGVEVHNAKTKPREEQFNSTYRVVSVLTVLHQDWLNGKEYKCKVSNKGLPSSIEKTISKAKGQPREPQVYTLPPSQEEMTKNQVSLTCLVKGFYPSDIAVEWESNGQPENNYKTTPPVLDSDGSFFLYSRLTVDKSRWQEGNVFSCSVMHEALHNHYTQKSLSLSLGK
light: DIQMTQSPSSLSASVGDRVTITCRASQDIINYLNWYQQKPGKAVKLLIYYTSRLHSGVPSRFSGSGSGTDYTLTISSLQPEDFATYYCQQGKTLPYTFGQGTKLEIKRTVAAPSVFIFPPSDEQLKSGTASVVCLLNNFYPREAKVQWKVDNALQSGNSQESVTEQDSKDSTYSLSSTLTLSKADYEKHKVYACEVTHQGLSSPVTKSFNRGEC
notes: Biotinylated in the Octet assay; also called Humanized VH3SQVL3

EC50 (read off the curve) [11]: ~0.03 µg/mL
B9: humanized IgG4/kappa anti-human CD89 monoclonal antibody 10E7 version VH1VL3 (antibody)
heavy: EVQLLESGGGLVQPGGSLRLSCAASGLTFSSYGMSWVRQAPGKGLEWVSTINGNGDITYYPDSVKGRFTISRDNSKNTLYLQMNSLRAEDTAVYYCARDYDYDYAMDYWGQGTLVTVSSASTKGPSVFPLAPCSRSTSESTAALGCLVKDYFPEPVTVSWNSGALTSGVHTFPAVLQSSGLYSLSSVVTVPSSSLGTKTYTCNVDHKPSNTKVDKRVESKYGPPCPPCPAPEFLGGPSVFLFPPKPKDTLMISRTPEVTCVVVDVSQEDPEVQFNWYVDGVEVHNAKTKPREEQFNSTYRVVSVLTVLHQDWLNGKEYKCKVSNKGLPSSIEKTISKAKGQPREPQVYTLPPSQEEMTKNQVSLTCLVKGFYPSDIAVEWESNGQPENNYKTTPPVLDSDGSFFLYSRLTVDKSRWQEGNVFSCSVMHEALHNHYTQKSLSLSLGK
light: DIQMTQSPSSLSASVGDRVTITCRASQDIINYLNWYQQKPGKAVKLLIYYTSRLHSGVPSRFSGSGSGTDYTLTISSLQPEDFATYYCQQGKTLPYTFGQGTKLEIKRTVAAPSVFIFPPSDEQLKSGTASVVCLLNNFYPREAKVQWKVDNALQSGNSQESVTEQDSKDSTYSLSSTLTLSKADYEKHKVYACEVTHQGLSSPVTKSFNRGEC
notes: as for B5

EC50 (read off the curve) [12]: ~0.03 µg/mL
B10: humanized IgG4/kappa anti-human CD89 monoclonal antibody 10E7 version VH1VL4 (antibody)
heavy: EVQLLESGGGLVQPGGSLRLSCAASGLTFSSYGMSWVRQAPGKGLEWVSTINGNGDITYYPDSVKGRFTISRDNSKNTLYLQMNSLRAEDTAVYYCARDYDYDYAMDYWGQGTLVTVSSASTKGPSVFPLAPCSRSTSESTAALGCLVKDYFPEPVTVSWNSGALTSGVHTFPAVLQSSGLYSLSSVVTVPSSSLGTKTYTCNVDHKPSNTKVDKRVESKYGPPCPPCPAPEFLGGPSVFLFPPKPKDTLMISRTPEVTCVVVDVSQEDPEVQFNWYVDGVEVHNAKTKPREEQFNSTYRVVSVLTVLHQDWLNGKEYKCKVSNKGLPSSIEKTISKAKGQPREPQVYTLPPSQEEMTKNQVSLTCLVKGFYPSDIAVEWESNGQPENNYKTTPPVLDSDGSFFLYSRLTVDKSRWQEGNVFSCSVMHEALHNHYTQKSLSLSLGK
light: DIQMTQSPSSLSASVGDRVTITCRASQDIINYLNWYQQKPGKTVKLLIYYTSRLHSGVPSRFSGSGSGTDYTLTISSLQPEDFATYFCQQGKTLPYTFGQGTKLEIKRTVAAPSVFIFPPSDEQLKSGTASVVCLLNNFYPREAKVQWKVDNALQSGNSQESVTEQDSKDSTYSLSSTLTLSKADYEKHKVYACEVTHQGLSSPVTKSFNRGEC
notes: as for B5

IC50 (read off the curve) [1]: ~0.9 µg/mL
IC50 (read off the curve) [3]: ~1 µg/mL
IC50 (read off the curve) [4]: ~0.8 µg/mL
B11: CD89/IgA blocking chimeric mouse/human IgG4/kappa anti-human CD89 antibody 30C7 (antibody)
heavy: not shown
light: DIVMSQSPSSLAVSAGEKVTMSCKSSQSLLNSRTRKNYLAWYQQKPGQSPKLLIYWASTRESGVPDRFTGSGSGTDFTLTISSVQAEDLAVYYCKQSYNLMYTFGGGTKLEIKRTVAAPSVFIFPPSDEQLKSGTASVVCLLNNFYPREAKVQWKVDNALQSGNSQESVTEQDSKDSTYSLSSTLTLSKADYEKHKVYACEVTHQGLSSPVTKSFNRGEC
notes: stabilized (S239P) human IgG4; also called chimeric 30C7

— US20230242646A1 (JJP BIOLOGICS SP Z O O, published 2023)
